For test [1], the target named is T1, SARS-CoV-2 Nsp9, wild type, purified recombinant (SARS-CoV-2, UniProt P0DTD1).
Test [2] has as its target T1, SARS-CoV-2 Nsp9, wild type, purified …. The experiment in a line: NMR titration. Particulars: both partners purified.
Test [3] has the same target. The test can be described thus: far-Western, overlay or dot blot. Particulars: both partners purified.

Read-outs that look alike come from different tables or passages of the source.

This is an account of results in publication PMC8646926 (Advanced Biology, 2021).

The term stoichiometry N denotes the number of molecules, sites or subunits per partner or assembly.

B1: 3NSP52 (VHH)
VHH: QVQLQESGGGLVQPEGSLRLSCAASGLTFDSYAIGWFRQAPGKEREFVAASIWSGDSGHYTGSVKGRFTISRDNAKNTVDLQMNSLKPEDTAVYYCAASASFLHSANYHMRAKWGYWGQGTQVTVSS
As to B1, the binding result in test [1] was “binds”.

B2: 2INS45 (VHH)
VHH: QVQLQESGGGLVQAGGSLRLSCAASGFTLSSNDMGWYRQAPGKQRELVATITSGLSTNYADSVKGRFTISRDNAKNTVFLQMNSLKIEDTAVYYCEVERGWGPPRDYWGHGTQVTVSS
Consider B2, for which, in test [1], the binding result is “binds”.

B3: 2INS69 (VHH)
VHH: QVQLQESGGGLVRAGDSLRLSCAVSGRTFSSVAMGWFRQAPGKEREFVAFISGSTGSVTYYADSVKGRFAISRDNAKNTVYLQMNSLKPEDTAVYDCAAKFTGTFNYQGLYDYWGQGTQVTVSS
Turning to B3, in test [1], the binding result is listed as “binds”.

B4: 2INS27 (VHH)
VHH: QVQLQESGGGLVQAGGSLRLSCATSGSIFSSAVMGWYRQAPGNERELVALIGSSDTTDYSNSVKGRFTISRDNAKNTAYLRMNSLKPEDTAVYYCTAVKYGLGGFVYWGQGTQVTVSS
For B4, in test [1], the binding result is on record as “binds”.

B5: nanobody 2NSP90 (VHH)
VHH: QVQLQESGGGLVQTGDSLRLSCAVSGRTFSTYSVGWFRQAPGKEREFVALRWSGGTTYYADSVVGRFTVSRDNAKNTVYLEMNSLKPEDTAVYYCAADRGSGSYSPTYRWDYWGQGTQVTVSS
As to B5, the “stoichiometry N” value in test [2] lay within 3 to 4.

B6: nanobody 2NSP23 (VHH)
VHH: QVQLQESGGGLVQPGGSLRLSCAASGLAFSMYTMGWFRQAPGKEREFVAMIISSGDSTDYADSVKGRFTISRDNGKNTVYLQMDSLKPEDTAVYYCAAPKFRYYFSTSPGDFDSWGQGTQVTVSS
Take B6: the binding result in test [3] is listed as “binds”.

B7: 3NSP78 (VHH)
VHH: QVQLQESGGGLVQAGGSLRLSCAASGRAFSSYVMGWFRQAPGKEREFVAAIHWTGAATVYVDSVKGRFAISRHNAKNTVYLEMNSLKPEDTAVYYCAADPSGSYWPPKRYDYWGQGTQVTVSS
Consider B7, for which, in test [1], the binding result is given as “binds”.

B8: 2INS64 (VHH)
VHH: QVQLQESGGGLVQVGGSLRLSCAASGSILSINAMGWYRQAPGKQRELVAAITSGGSTNYADSVKGRFTISRDNAKNMLYLQMNSLKPEDTAVYYCHVVTGWGPLDWGQGTQVTVSS
For B8, the binding result in test [1] is reported as “binds”.
